Here are results for 13 sequences from the DeepSol protein solubility set.

A short description of the data set: soluble on expression in E. coli; label from the status in PepcDB or PDB records.
As for “MVGPATGRIVVTSRIVVLGGGFGGMYAARALKRRLGRAAEIELVNAENYFVFQPLLPEVGAGSITPAHAVSPLRFLLRDVFVRKATVDSVDFDRRLVTVFQGVQRRPTEIGYDHLVIALGQAADLSKMPGLEEHALTMRTLEDARRLRAHVIGQLEHAQITRLPEVKRGALTFCVVGGGFSGIETAGEMKDLIDRSLKFYPDIDPSEVRMIVVEFADRILGEMSQGLADYATRTLRERGIEVKLGTGVASATGTQLVTTTGEVIDTRTIVATIGNAPSPVVRRMGLPSERGRISVDRTLAVKGRSDVWALGDCALIALKDAPQGPRDYAPPTAQFAVREAEQLAENIASTLTGGTPQPFDYRSKGALASLGARKGVAQVFGLELKGFPAWLLWRFYYLAFLPGLTTRIFVLLNWFMDGISPRSVVQLHTRSVPPTRYVRYRAGDVIYEAGNRSDGFYTVVTGAVEMTRTDPETGLPQVRTIGPGGHFGERLILGATRRQTSVRAAEDTKVLVMDREEFLKLADSFQAFRDYFGPYMARHGMTWPPLGETDGQAAPKPVPTEKDLEHHHHHH”, the “soluble on expression in E. coli” value is listed as “not soluble”.

As for “MGLHRLIYLSCATDGLSYPDLRDIMAKSEVNNLRDGITGMLCYGNGMFLQTLEGDRQKVSETYARILKDPRHHSAEIVEFKAIEERTFINWSMRLVQLGEMDSDTIRRLRLKYSPAATFQPRSMTAEQCFRFLKELYDMSQGS”, the “soluble on expression in E. coli” value is listed as “soluble”.

“MGSDKIHHHHHHMERIVDTADGRFDTRLTGTGNVTFILDHGMMSSHYQWGWLRGELLKQGRVFEYSRLGYGRSTRGKTKRLFTRQADELERVLALLDIKGPFVFIGHSLGAYISLELGRRRPDETAGIVLLDPSHPEVDAELPNWYERTQEEWNRFLYVLSHVRPLAWLIPDDLGARMFTSLPEADRIPMWRNMARKNHWRGTLDEWQAVEANNQHVLEVVEHIVPPVLVLSASDWAGGMPENWLNPELTKRINAAHERFAASLPDAAFHVIPNTNHYTIAGFSEEAATTIVSLIRNAFFK”: the “soluble on expression in E. coli” value is on record as “not soluble”.

As for “MSLKKSPLTIVHLTDIHYDPEYVVGVNADCKAEACCRTLPDLAPATPETAAGYWSDYRDCDTPWHGVVDVMEHIRRQHPKIDAIYFTGDIVHHFTWNTSIETNEGAMRQVFDLMKRVFPGVPLYPVLGNHESHPANLYAPHDVEASYRMDYLYDFIADQWADWLPIKDIRPTLTEGGYYTVRTPYGVRIIGLNNNPCFVHNFWLFYSLDYFMPQLQWLHDTLLQAEWDNERVHILAHVPSYDDSCFIGWTREYRKIVERFAHIIAGQFNGHSHVDEFNLYYRRDDPSRAVSVAWNGGSTTTFTKLNPNYKVFQFDPVTFEPLEQETWMYNLTDANLTPDQRPSWYRLYSFKSYYQLPDLSVDSLHRLVQRFAQSEQQLHRYWQAKQKYSDPLLQEGCTSTCLRNALCAIVRTEHDDERACELLYERAAQSEGHHHHHH”, the “soluble on expression in E. coli” value is “not soluble”.

On to “MFADTCGFMNRSPEHIFGSPEIDYSDVSTGYLEDALIESGERSKRRRLLFEDPSKSFNDDDSQNDWGLHESYSCLNSQFVTPHVNTGERISGVSYCQETISNVYESPDTSVSYDKIYVREKSPTEPSSSNCGNKNKRLITKLVYPFGLVKPGGRENDVTLNDINERILMAPSRPIRHPVGDFASRPCVSGRGPGLSGKAVVALTKIQTQGRGTITIIRTKG”, for which the “soluble on expression in E. coli” value was “soluble”.

For the sequence “MGSDKIHHHHHHMKKIRFAAIGLAHNHIYDMCQQLIDAGAELAGVFESDSDNRAKFTSLFPSVPFAASAEQLITDASIDLIACAVIPCDRAELALRTLDAGKDFFTAKPPLTTLEQLDAVQRRVAETGRKFAVYFNERINVDSALFAGELVQRGEIGRVIQTMGVGPHRERGARPDWFYQKRQYGGILCDIGIHQIEQFLYFTGNTNARVVTSQTANYHHPHHPEFEDFGDAMLLGDNGATGYFRCDWFTPDGLSVWGDGRLTILGTEGYIEIRKYVDLTRGESNVVYLVNGKGEQRFTPAGSVERAFFPDFLRDCRERTENAMSQSHIFKATELSILAQQAANKIA”, the “soluble on expression in E. coli” value was “not soluble”.

As for “MNLQHHFLIAMPALQDPIFRRSVVYICEHNQNGAMGIIVNKPLENLQIEGILEKLKITPESRDSAIRLDKAVMLGGPLAEDRGFILHTPPSRFASSIRISDNTVITTSRDVLETLGTQQQPSDVLVALGYASWDKGQLEQELLDNAWLTAPADLNILFKTPIAERWREAAKLIGIDILTMPGVAGHALEHHHHHH”, the “soluble on expression in E. coli” value is “soluble”.

As to “MGSDKIHHHHHHMHMRVLIINTSERIGGAAIAANRLMEALKNNGIKTKMLVRDKQTDQISVVELKKSWWKVWQFIWERVVIWQANHFKKHNLFAVDIANTGTNITALPEFTQADVIHLHWINQGMLSLTDIRRIIQSGKPIVWTMHDMWPFTGICHYAGDCDKYATQCHNCPQLYKGSRKDIAYRTFQKKKKLFEGAQITFVACSRWLESLAKKSDLIKGQTITNIPNAINTNLFKPRDKKQAREKCHLPQDKKLLLFGSVKITDKRKGIDYLVSACKQIASSYPDFSKELGVVVFGNQAEQYASLFPFPIYPMNYVSNEKELVDIYNAVDLYVTPSLQDNLPNTIVEAMACGIPCIGFNVGGIPQMIDHLHNGYVAEYQSSKDLANGIHWALTEGEYESLSEEACRKAVSSYSESTIAKKYVEIYNKITGNHA”, the “soluble on expression in E. coli” value was “not soluble”.

With “MGSDKIHHHHHHATRSGKTPVSVELEIGGLPGDESVDDAIDPDLENPNTSFDLLFIPKEFTFETQAISGDLTAVPIRPSEGNTHTMRHFGMGDVRGALTGWHVTAEIPHMRNEAHSLLGIITFQLTGSYARYDKTLRRFFMTNTMYGLDFSEDPAAPDFPTNPIIIGNGATLMSNAGDRKGQGMWSGRMTDISLAIQTPVSQLFPGAYTGSIIWNLISGPV”, the “soluble on expression in E. coli” value was “not soluble”.

With “MNMDVNAVKNSTRGKHWFNLLTQGFNLIASGIDSLLIAEGQLGENKISVFCVVPDSHNHFPRARQGEVGLLEGWSLAQAIDQIIESDQNLTHKRGILCIVDVPSQAYGRREELLGIHQALAAAADSYVRARLAGHPVVSLLVGKSMSGAFLAHGYQANRILALKDQGVMVHAMGKESAARVTLRTVDELENLAANIPPMAYDIESYNSLGLLSGLLNVSHADHPTTSDIDYIQQTLSQTFQEIRNQGTSDLKHRLSAKNREASVHVRELLREQWS”, the “soluble on expression in E. coli” value is recorded as “not soluble”.

“MGGSHHHHHHGMASGSAGLSRLHGLFAVYKPPGLKWKHLRDTVELQLLKGLNARKPPAPKQRVRFLLGPMEGSEEKELTLTATSVPSFINHPLVCGPAFAHLKVGVGHRLDAQASGVLVLGVGHGCRLLTDMYNAHLTKDYTVRGLLGKATDDFREDGRLVEKTTYDHVTREKLDRILAVIQGSHQKALVMYSNLDLKTQEAYEMAVRGLIRPMNKSPMLITGIRCLYFAPPEFLLEVQCMHETQKELRKLVHEIGLELKTTAVCTQVRRTRDGFFTLDSALLRTQWDLTNIQDAIRAATPQVAAELEKSLSPGLDTKQLPSPGWSWDSQGPSSTLGLERGAGQ”: the “soluble on expression in E. coli” value was “not soluble”.

Take “MGSDKIHHHHHHMNYNKLSSATIQGIEAMKIDVEVDFDNRSVFNDIDVVGLGDTAVKESRKRVKSAILNSGFSLPHGKYVVNLAPGDVRKEGSMLDLPIALCILASTGIVQVSENILAIGELSLNGEVKRVNGVLPVLLSLSEMFSGTVLIPKENEEEAKCVKELDIYAVESLRECVEFLRGDRTLKRIEYSGIENTNLEYEIDFSDVRDHEMVKRAVEIAVAGFHNILMVGNPGSGKTMIAKRIPTIFPPMSEEEILETSKVYSASGYPGIVKLRPFRAPHHTASTVSIIGGGTNPRPGEISLAHNGVLFLDELPEFKRDVLEALRQPLEEGIVTVARAKFTVTYPARFMLVGAMNPCPCGNLGDPKQPCVCSPRDIMRYRKKISGPLLDRMDLVINVPKLSFEEMMKKPEGEKSSSIRERVMKAREIQKRRFRDTHISCNSQMSHRMLRRFVQLDEKSEDLLKRYVERYGLSGRKIDKVLKISRTIADLEGSNGVEMSHLAEALQYRFRES”: the “soluble on expression in E. coli” value is listed as “not soluble”.

In the case of “MGHTMPAHTPPAQTAPAAQKAGAQALPVTVQGATVAAVPPSIRDTAAYMTLTNKSDQPIKLVGAATPLATSPMLMTTTHSGGMAGMKMVPWLTIPARGTLTLQRDGDHVMLMGLKRPLKVGETVNITLKATDGRTLNVAATVKKNIEGR”, the “soluble on expression in E. coli” value was “soluble”.
